Reference: the DeepSol protein solubility set

Assay: soluble on expression in E. coli; label from the status in PepcDB or PDB records

Sequence | soluble on expression in E. coli
MSKRQSSLMSFFTKTPKSEKPEEEVKEKSVEEPKSLKNDTPKISNDSEKKVLKRSNSKTVSSPVKTPRNASKRPKVVVCSSSEGEDDDGDEDFEMKEAEEHESSDESEADENASDCEVVESPESTPQSTPKRGGKKKISKPLLAENTPKSVKMAGKSKKVIPDGEAVSMAGVLDKMDKIMDGEGERKRIVEKTTGAKNKAVELEPAERFDHESFDFLKPDKIRDGFKRPMSDPEYDPKTLWVPPDFHQKQTPGHRQWWTMKSQHFDTILLFKVGKFYETYHMDAVEVVRALNIAFMRGSYAHAGFPEHAASKFADQLMNHGYKVARIEQTETPQMLEERNQKTKTKEKVVRREVCRVTSNGTRTYGVLDGVDLGSASSTLDPTAKHLLAIKEFHNPETGKSSYGVCMIDTTTAHIRIGQFEDDDYRSQLRTLLANVIVVQAIVERGSISSTTKSIINGILFSVPVEHLLPKKQFMTAEDVVRIVSNEDYYGSDASEWPEVLKGMLEDSSILPKPSTDWQLALSAFGAIFWYLRDSLIDVDMLSMRNVTIYNSNSMENDQKKEKIDWNGKNLILDGTALENLNIVPNGRDSHLTSLYYVINKCSTPFGRRLLRSWLLQPTCDPKKLEQRQKAIKWLVSPDASSFMTTATATLKKIPDLDRLLQKIHTIGLKYRSEKHPDSRAIFFDTIKTNQKKIAELLAAIDGFKLCNKLRKEYIKVQKEGEGCELLDELLGNEQEMEEVDENIYFFEKMFDRSTAMKDGKIVPNAGCDEEYDEALNRVKEALNELNDYKDSVAKKYSCSIKFVDSGKVKYLLEMPENTKVSSSFELKSRRKGFIRYSTPDSEQLVAALDAVEKEKSKLGDDATRRVFEQFGHKNPIWLETVKLVSSFDVLTSLALFAKSSPFEMCMPEFDFNATDPYLIVDKGVHPCLALQSRNEVTQTTSFIANSTTMGASEAAVMLLTGPNMGGKSTLMRQTAVLAILAHIGSMVPAFSMRLTPIDRIFTRIGANDRIMCGESTFFIELKETDIMLKNATKHSLLLVDELGRGTSTFDGTAIASAVLQKISDDLACRTFFSTHYHSICDSFTNHPNVRLAHMKCVVDKENNEDPTMEDVTFLYELESGICPKSYGFYAAKLAGIDHQVVRNAYLESNKFASNLIIDPKIRHLVECARDDNFDVGELKRMIEAI | not soluble
AEAEFNNYCKIKCLKGGVHTACKYGSLKPNCGNKVVVSYGLTKQEKQDILKEHNDFRQKIARGLETRGNPGPQPPAKNMKNLVWNDELAYVAQVWANQCQYGHDTCRDVAKYQVGQNVALTGSTAAKYDDPVKLVKMWEDEVKDYNPKKKFSGNDFLKTGHYTQMVWANTKEVGCGSIKYIQEKWHKHYLVCNYGPSGNFKNEELYQTK | soluble
MSSSESPAGIAQIGVTGLAVMGSNIARNFARHGYTVAVHNRSVAKTDALLKEHSSDGKFVRSETIPEFLAALEKPRRVLIMVKAGEATDADAVINELADAMEPGDIIIDGGNALYTDTMRREKAMRERGLHFVGAGISGGEEGALNGPSIMPGGPAESYQSLGPLLEEISAHVDGVPCCTHIGPDGSGHFVKMVHNGIEYSDMQLIGEAYQLMRDGLGLTAPAIADVFTEWNNGDLDSYLVEITAEVLRQTDAKTGKPLVDVIVDRAEQKGTGRWTVKSALDLGVPVTGIAEAVFARALSGSVGQRSAASGLASGKLGEQPADPATFTEDVRQALYASKIVAYAQGFNQIQAGSAEFGWDITPGDLATIWRGGCIIRAKFLNHIKEAFDASPNLASLIVAPYFRGAVESAIDSWRRVVSTAAQLGIPTPGFSSALSYYDALRTARLPAALTQAQRDFFGAHTYGRIDEPGKFHTLWSSDRTEVPV | soluble
MDCQIGSRRCATWDEIEDAPQTKRLREDKVQENVPQQSVQPAPPPPAAQQAPAPAEQPKFYISAPIQGFTVNNQGGCRYLFF | not soluble
AQKHVAIALCGKGNIGSSWLKLFAEQKEKLEQRHGMNFELVAVVDSQTYWFNEQGINPNQVATHFQDEALPNQEQSWLKKLGALEGYDEAVVIDVTASEELAEQYLDIAEHGLHLISANKVAGSAAGNYYYQVKDAFHKIGRHWLYNATVGAGLPINHTVRDLRESGDDIMALSGIFSGTLSWLFQQYDGSL | not soluble
MNVKSRQQENAEATREALLESALSAFIEHGYGGVSIDAIAREARVTKGAFYHHFGSKQELLAECYERQVRTIAEDLDRVPAHVDKWAEAAALAEAFIDSVMARGKRQLSLQEVITVVGWERWKRIDSRHTLRYVGRLVDELAASGELKDYRRETLVGQLYGFLTQAAMSLRDARNKRQAANEVKAIIRDFLYSLRRG | not soluble
TVEFRDLQGQRMIAVAENVASTPVVRDQLSDRSVERVLAPEVDRAVNLSGATLAEIVAPNGAVTVSSDPTRLGVPAELGASDVMTGRAWSGDVDVDGRRAIVGHVPILSATGDVLAVVTVSDDYPSVWDLLSSAG | not soluble
